Among the data in US20210238260A1 (published 2021) are Kd values, retold here.

Assay [1] concerns the target T1, Factor VIIIa (FVIIIa), from recombinant FVIII (Kogenate FS; Bayer healthcare) activated with alpha-thrombin (UniProt P00451 20-2351).
T1 sequence (looked up): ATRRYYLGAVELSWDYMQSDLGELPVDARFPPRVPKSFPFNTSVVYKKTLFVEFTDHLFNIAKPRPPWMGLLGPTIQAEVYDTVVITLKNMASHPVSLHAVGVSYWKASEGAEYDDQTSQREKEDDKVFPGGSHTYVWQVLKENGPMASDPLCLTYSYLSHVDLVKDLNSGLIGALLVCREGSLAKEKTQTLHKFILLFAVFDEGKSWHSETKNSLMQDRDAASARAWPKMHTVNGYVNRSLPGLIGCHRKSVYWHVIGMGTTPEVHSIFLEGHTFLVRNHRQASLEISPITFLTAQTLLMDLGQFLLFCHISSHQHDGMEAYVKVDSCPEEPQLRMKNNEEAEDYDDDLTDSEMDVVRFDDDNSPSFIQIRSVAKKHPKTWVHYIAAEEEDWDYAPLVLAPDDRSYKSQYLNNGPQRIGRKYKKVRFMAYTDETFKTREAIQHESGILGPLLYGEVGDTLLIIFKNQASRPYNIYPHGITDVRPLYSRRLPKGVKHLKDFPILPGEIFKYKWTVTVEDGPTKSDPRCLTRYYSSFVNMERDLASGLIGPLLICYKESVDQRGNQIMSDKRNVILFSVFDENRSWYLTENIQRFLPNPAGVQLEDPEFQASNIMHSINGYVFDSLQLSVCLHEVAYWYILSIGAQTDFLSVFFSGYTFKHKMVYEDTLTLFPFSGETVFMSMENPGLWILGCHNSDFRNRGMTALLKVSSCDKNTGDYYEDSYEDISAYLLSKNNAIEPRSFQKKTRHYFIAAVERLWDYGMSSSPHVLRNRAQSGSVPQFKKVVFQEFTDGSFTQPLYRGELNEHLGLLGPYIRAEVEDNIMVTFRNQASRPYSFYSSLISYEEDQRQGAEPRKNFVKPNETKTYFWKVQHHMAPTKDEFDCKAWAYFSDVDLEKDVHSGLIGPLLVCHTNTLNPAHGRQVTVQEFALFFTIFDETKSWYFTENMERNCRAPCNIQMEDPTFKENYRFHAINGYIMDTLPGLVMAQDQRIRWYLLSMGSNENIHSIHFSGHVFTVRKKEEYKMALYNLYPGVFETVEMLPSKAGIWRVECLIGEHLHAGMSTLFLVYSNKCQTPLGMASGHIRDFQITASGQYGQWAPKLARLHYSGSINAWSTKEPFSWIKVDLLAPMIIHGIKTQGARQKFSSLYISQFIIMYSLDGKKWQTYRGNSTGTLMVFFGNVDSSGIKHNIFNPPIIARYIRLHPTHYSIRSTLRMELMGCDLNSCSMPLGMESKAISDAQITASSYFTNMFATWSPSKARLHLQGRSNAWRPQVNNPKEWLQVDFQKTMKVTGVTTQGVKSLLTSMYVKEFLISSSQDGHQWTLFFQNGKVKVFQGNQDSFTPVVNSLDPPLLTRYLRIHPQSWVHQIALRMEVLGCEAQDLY
The assay can be described thus: apparent functional KD (KD-app): FX activation rate vs FVIIIa titration, fluorogenic Xase assay with PC/PS vesicles and Ca2+.

Assay [2] concerns the target T2, Factor VIIIa (recombinant FVIII, Kogenate FS, activated with alpha-thrombin) (UniProt P00451 20-2351).
T2 construct: also called FVIIIa
T2 sequence (looked up): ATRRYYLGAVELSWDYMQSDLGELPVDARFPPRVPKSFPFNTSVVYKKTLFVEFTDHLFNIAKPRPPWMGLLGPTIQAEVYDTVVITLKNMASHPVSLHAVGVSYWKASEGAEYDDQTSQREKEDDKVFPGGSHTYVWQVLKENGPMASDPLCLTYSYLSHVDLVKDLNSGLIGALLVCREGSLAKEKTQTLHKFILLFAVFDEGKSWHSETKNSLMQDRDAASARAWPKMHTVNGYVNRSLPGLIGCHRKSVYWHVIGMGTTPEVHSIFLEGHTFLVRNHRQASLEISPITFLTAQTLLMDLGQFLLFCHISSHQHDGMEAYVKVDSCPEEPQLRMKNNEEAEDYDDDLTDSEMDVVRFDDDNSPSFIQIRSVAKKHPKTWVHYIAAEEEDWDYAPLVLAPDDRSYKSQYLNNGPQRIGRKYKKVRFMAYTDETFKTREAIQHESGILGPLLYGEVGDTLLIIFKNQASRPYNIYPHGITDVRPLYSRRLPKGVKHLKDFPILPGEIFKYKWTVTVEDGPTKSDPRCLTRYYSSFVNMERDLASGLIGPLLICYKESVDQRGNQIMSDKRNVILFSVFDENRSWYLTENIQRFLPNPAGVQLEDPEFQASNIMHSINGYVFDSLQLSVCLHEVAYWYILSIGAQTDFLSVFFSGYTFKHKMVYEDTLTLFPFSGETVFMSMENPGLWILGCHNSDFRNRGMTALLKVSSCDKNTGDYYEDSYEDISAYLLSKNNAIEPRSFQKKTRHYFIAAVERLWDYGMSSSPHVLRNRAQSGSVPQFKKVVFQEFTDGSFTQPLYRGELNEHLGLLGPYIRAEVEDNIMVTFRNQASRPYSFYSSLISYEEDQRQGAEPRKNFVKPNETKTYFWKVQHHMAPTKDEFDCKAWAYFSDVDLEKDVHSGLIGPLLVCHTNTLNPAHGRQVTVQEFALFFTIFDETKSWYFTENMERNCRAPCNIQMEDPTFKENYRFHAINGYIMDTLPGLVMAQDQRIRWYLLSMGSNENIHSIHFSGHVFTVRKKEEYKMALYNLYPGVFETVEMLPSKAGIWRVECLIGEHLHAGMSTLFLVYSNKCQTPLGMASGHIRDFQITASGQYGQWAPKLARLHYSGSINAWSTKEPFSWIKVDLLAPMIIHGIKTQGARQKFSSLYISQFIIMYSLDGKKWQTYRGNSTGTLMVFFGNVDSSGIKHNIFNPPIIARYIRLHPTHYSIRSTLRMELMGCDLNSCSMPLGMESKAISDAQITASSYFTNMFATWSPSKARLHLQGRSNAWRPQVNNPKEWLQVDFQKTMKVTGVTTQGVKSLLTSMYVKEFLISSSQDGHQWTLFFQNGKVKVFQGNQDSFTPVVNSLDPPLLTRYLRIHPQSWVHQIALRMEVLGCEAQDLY
Description: functional cofactor affinity KD-app: fluorogenic FX activation (Xase) assay, FVIIIa titrated, PC/PS vesicles, saturating FX.

B1: FIXa variant D104N/K106S/K247N/N249S/N260S (enzyme)
light: YNSGKLEEFVQGNLERECMEEKCSFEEAREVFENTERTTEFWKQYVDGDQCESNPCLNGGSCKDDINSYECWCPFGFEGKNCELDVTCNIKNGRCEQFCKNSANNSVVCSCTEGYRLAENQKSCEPAVPFPCGRVSVSQTSKLTR
heavy: VVGGEDAKPGQFPWQVVLNGKVDAFCGGSIVNEKWIVTAAHCVETGVKITVVAGEHNIEETEHTEQNRSVIRIIPHHNYSAAINKYNHDIALLELDEPLVLNSYVTPICIADKEYTNIFLKFGSGYVSGWGRVFHKGRSALVLQYLRVPLVDRATCLRSTKFTIYNNMFCAGFHEGGRDSCQGDSGGPHVTEVEGTSFLTGIISWGEECAMKGKYGIYTKVSRYVNWIKEKTKLT
With B1, the Kd in assay [1] was found to be 330 nM.

B2: FIXa-R318Y/R338E/T343R/E410N (enzyme)
chain 1: YNSGKLEEFVQGNLERECMEEKCSFEEAREVFENTERTTEFWKQYVDGDQCESNPCLNGGSCKDDINSYECWCPFGFEGKNCELDVTCNIKNGRCEQFCKNSADNKVVCSCTEGYRLAENQKSCEPAVPFPCGRVSVSQTSKLTR
chain 2: VVGGEDAKPGQFPWQVVLNGKVDAFCGGSIVNEKWIVTAAHCVETGVKITVVAGEHNIEETEHTEQKRNVIRIIPHHNYNAAINKYNHDIALLELDEPLVLNSYVTPICIADKEYTNIFLKFGSGYVSGWGRVFHKGYSALVLQYLRVPLVDRATCLESTKFRIYNNMFCAGFHEGGRDSCQGDSGGPHVTEVEGTSFLTGIISWGEECAMKGKYGIYTKVSRYVNWIKNKTKLT
notes: also called R150Y/R170E/T175R/E240N (chymotrypsin numbering)
Regarding B2, the Kd in assay [2] was found to be 6.1 nM.

B3: FIXa variant D104N/K106S/Y155F/K247N/N249S/N260S (enzyme)
light: YNSGKLEEFVQGNLERECMEEKCSFEEAREVFENTERTTEFWKQYVDGDQCESNPCLNGGSCKDDINSYECWCPFGFEGKNCELDVTCNIKNGRCEQFCKNSANNSVVCSCTEGYRLAENQKSCEPAVPFPCGRVSVSQTSKLTR
heavy: VVGGEDAKPGQFPWQVVLNGKVDAFCGGSIVNEKWIVTAAHCVETGVKITVVAGEHNIEETEHTEQNRSVIRIIPHHNYSAAINKYNHDIALLELDEPLVLNSYVTPICIADKEYTNIFLKFGSGYVSGWGRVFHKGRSALVLQYLRVPLVDRATCLRSTKFTIYNNMFCAGFHEGGRDSCQGDSGGPHVTEVEGTSFLTGIISWGEECAMKGKYGIYTKVSRYVNWIKEKTKLT
Take B3: the Kd in assay [1] was found to be 142 nM.

B4: FIXa variant K247N/N249S/R318Y/R338E/R403E/E410N (enzyme)
light: YNSGKLEEFVQGNLERECMEEKCSFEEAREVFENTERTTEFWKQYVDGDQCESNPCLNGGSCKDDINSYECWCPFGFEGKNCELDVTCNIKNGRCEQFCKNSADNKVVCSCTEGYRLAENQKSCEPAVPFPCGRVSVSQTSKLTR
heavy: VVGGEDAKPGQFPWQVVLNGKVDAFCGGSIVNEKWIVTAAHCVETGVKITVVAGEHNIEETEHTEQNRSVIRIIPHHNYNAAINKYNHDIALLELDEPLVLNSYVTPICIADKEYTNIFLKFGSGYVSGWGRVFHKGYSALVLQYLRVPLVDRATCLESTKFTIYNNMFCAGFHEGGRDSCQGDSGGPHVTEVEGTSFLTGIISWGEECAMKGKYGIYTKVSEYVNWIKNKTKLT
notes: also called K82N/N84S/R150Y/R170E/R233E/E240N
For B4, the Kd in assay [1] worked out at 68.6 nM.

B5: FIXa variant Y155F/K247N/N249S/R318Y/R338E/R403E/E410N (enzyme)
light: YNSGKLEEFVQGNLERECMEEKCSFEEAREVFENTERTTEFWKQYVDGDQCESNPCLNGGSCKDDINSYECWCPFGFEGKNCELDVTCNIKNGRCEQFCKNSADNKVVCSCTEGYRLAENQKSCEPAVPFPCGRVSVSQTSKLTR
heavy: VVGGEDAKPGQFPWQVVLNGKVDAFCGGSIVNEKWIVTAAHCVETGVKITVVAGEHNIEETEHTEQNRSVIRIIPHHNYNAAINKYNHDIALLELDEPLVLNSYVTPICIADKEYTNIFLKFGSGYVSGWGRVFHKGYSALVLQYLRVPLVDRATCLESTKFTIYNNMFCAGFHEGGRDSCQGDSGGPHVTEVEGTSFLTGIISWGEECAMKGKYGIYTKVSEYVNWIKNKTKLT
In the case of B5, the Kd in assay [1] stood at 45.8 nM.
